Assay [1] addresses monoclonal antibody mAB 198. In words: peptide microarray, fluorescence, linear peptide.
In assay [2] the target is monoclonal antibody mAB 198. The experiment in a line: peptide microarray, fluorescence, cyclic peptide.

Where no end group is shown, it is not given here.

Molecule GSLRYNP [GSLRYNP, linear mimotope] yielded a relative signal [%] in assay [1] of 34.4%.
Take GGGSLRRNPAD: the relative signal [%] in assay [1] came to 10.6%.
Same read-out and setting: for HWNPADY [HWNPADY, linear mimotope] the value was 7.4%; for RIRWNPADY, 6.8%.
NPDDYGH [NPDDYGH, linear mimotope] displayed a relative signal [%] in assay [1] of 7.7%.
In assay [2], RFNPADY (also: cyclic peptide, ring type and places not given here) [RFNPADY, cyclic mimotope] yielded a relative signal [%] of 37.5%.
As for NPADYGN [NPADYGN, linear mimotope], in assay [1], the relative signal [%] is 6.5%.
WNPADYH [WNPADYH, linear mimotope] yielded a relative signal [%] in assay [1] of 9.4%.
Still for that read-out and setting: for CNLKYNP [CNLKYNP, linear mimotope] the value was 6.7%.
Still for that read-out and setting: to DVRLRWNPSDY belongs 6.8%.
The molecule RLRGNPADY (also: cyclic peptide, ring type and places not given here) came in with a relative signal [%] in assay [2] of 32.7%.
In the case of NPADYDG [NPADYDG, linear mimotope], the relative signal [%] in assay [1] was determined as 10.3%.
In assay [1], NPADYGI [NPADYGI, linear mimotope] returned a relative signal [%] of 8%.
With ALRWNPADY, the relative signal [%] in assay [1] is 6%.
HSLRWNPAD displayed a relative signal [%] in assay [1] of 6.6%.
For RPNPADY [RPNPADY, linear mimotope], in assay [1], the relative signal [%] amounted to 9.5%.
As to GSLRRNPAD, the relative signal [%] in assay [1] was 9.5%.
Same read-out and setting: to VPLRWNPAD belongs 7.6%; to GNPADYGGI, 8.9%.
Molecule WIDVRLRGNPA (also: cyclic peptide, mode of cyclisation not given here) gave a relative signal [%] in assay [2] of 43.2%.
In turn, WRLRWNPAD had a relative signal [%] in assay [1] of 9%.
As to SLRVNPADY, in assay [1], the relative signal [%] is 6.7%.
LRPNPADYG came in with a relative signal [%] in assay [1] of 6.1%.
On to IDVRLRFNPAD, for which the relative signal [%] in assay [1] was 7.9%.
In assay [1], VDCNLKFNP showed a relative signal [%] of 6.8%.
Molecule RLRVNPADY (also: cyclic peptide, ring type and places not given here) displayed a relative signal [%] in assay [2] of 61.3%.
In turn, RLRGNPADY registered a relative signal [%] in assay [1] of 6.9%.
Regarding DVRLRINPADY (also: cyclic peptide, mode of cyclisation not given here), the relative signal [%] in assay [2] came out at 31.4%.
As for HRLRWNPAD, the relative signal [%] in assay [1] came out at 6.7%.
In the case of WNPDDYGHV, the relative signal [%] in assay [1] stood at 8.8%.
In assay [1], GGGSLRYNP registered a relative signal [%] of 7.1%.
Same read-out and setting: to YNLKYNP [YNLKYNP, linear mimotope] belongs 8.3%.
In turn, SLRWNPADYHG displayed a relative signal [%] in assay [1] of 10.6%.
On to RLRLNPADY (also: cyclic peptide, ring type and places not given here), for which, in assay [2], the relative signal [%] was 37.3%.
Molecule GSLRFNPAD gave a relative signal [%] in assay [1] of 9.3%.
DVRLRFNPADY had a relative signal [%] in assay [1] of 10%.
As for RTNPADY [RTNPADY, linear mimotope], the relative signal [%] in assay [1] turned out to be 7.2%.
WNPADYR [WNPADYR, linear mimotope] registered a relative signal [%] in assay [1] of 40.6%.
QWVDCNLKFNP returned a relative signal [%] in assay [1] of 6.4%.
In assay [1], DVRLRINPADY had a relative signal [%] of 8.5%.
As for RHNPADY [RHNPADY, linear mimotope], the relative signal [%] in assay [1] was 8.9%.
YNLPWNP [YNL PWNP, linear mimotope] came in with a relative signal [%] in assay [1] of 7.6%.
Regarding RLRYNPADY, in assay [1], the relative signal [%] came out at 6.5%.
Take LRVNPADYG: in assay [1], the relative signal [%] is 31.6%.
Turning to LRWNPADYHGI, the relative signal [%] in assay [1] stood at 7.2%.
Turning to RINPADY (also: cyclic peptide, ring type and places not given here) [RINPADY, cyclic mimotope], in assay [2], the relative signal [%] turned out to be 28.9%.
In turn, VDYNLKFNP registered a relative signal [%] in assay [1] of 7.6%.
Still for that read-out and setting: for LRWNPADYPGI the value was 6.5%; for LRINPAD [LRINPAD, linear mimotope], 9.2%.
DVRLRVNPADY (also: cyclic peptide, mode of cyclisation not given here): the relative signal [%] in assay [2] stood at 30.2%.
For the molecule RPNPADYGG, the relative signal [%] in assay [1] was 8.6%.
Same read-out and setting: for GGGSLRFNPAD the value was 8.1%; for RGNPADY [RGNPADY, linear mimotope], 6.9%.
In assay [2], RLNPADY (also: cyclic peptide, ring type and places not given here) [RLNPADY, cyclic mimotope] showed a relative signal [%] of 42.3%.
On to LRWNPADYGGF, for which, in assay [1], the relative signal [%] was determined as 10.6%.
Same read-out and setting: for VRHRWNPAD the value was 8.1%; for RRNPADY [RRNPADY, linear mimotope], 9.9%.
Consider VDCNLKYNP, for which, in assay [1], the relative signal [%] turned out to be 6.1%.
In assay [2], LRVNPADYG (also: cyclic peptide, mode of cyclisation not given here) gave a relative signal [%] of 45.1%.
SLRFNPADY registered a relative signal [%] in assay [1] of 6.5%.
For VRLRWNPADYP (also: cyclic peptide, mode of cyclisation not given here), the relative signal [%] in assay [2] amounted to 100%.
Molecule RWNPADYGH displayed a relative signal [%] in assay [1] of 9.4%.
Consider LRFNPAD [LRFNPAD, linear mimotope], for which, in assay [1], the relative signal [%] amounted to 37.1%.

These data come from patent publication US20230381328A1, “COMPOUND FOR THE PREVENTION OR TREATMENT OF MYASTHENIA GRAVIS” (ABLEVIA BIOTECH GMBH, priority 2020, published 2023).
